Patent US20250090663A1 (MYELOID THERAPEUTICS, published 2025)
Changes are numbered by the printed parent chain.

T1: Mouse CD70 mFc (mouse, UniProt O55237 45-195)
T1 construct: not shown: mFc
T1 sequence (looked up): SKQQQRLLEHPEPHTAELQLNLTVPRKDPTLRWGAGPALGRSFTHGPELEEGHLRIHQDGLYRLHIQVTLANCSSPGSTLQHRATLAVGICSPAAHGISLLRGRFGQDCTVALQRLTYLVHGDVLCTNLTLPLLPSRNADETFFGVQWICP

T2: IL13RA2 Protein, Rhesus macaque, His tag (Rhesus macaque, UniProt A0A5F8A9D9 27-343)
T2 construct: the summary sentence says cynomolgous; also called Rhesus macaque IL13R alpha 2 protein with His tag; cynomolgous IL 13RA2 (as the text calls it); not shown: His tag
T2 sequence: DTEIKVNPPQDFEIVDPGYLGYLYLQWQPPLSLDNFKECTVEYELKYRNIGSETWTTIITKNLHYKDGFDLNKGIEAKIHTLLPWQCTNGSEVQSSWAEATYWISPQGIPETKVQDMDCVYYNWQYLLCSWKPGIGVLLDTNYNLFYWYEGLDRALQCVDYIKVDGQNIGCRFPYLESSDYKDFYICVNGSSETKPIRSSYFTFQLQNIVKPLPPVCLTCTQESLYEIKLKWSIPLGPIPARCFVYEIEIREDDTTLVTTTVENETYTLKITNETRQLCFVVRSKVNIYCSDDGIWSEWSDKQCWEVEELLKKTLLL

T3: IL13RA2 Protein, Human, Recombinant (ECD)-His tag (human, UniProt Q14627 27-343)
T3 construct: extracellular domain; also called human recombinant protein extracellular domain; human IL13Ra2-His6
T3 sequence: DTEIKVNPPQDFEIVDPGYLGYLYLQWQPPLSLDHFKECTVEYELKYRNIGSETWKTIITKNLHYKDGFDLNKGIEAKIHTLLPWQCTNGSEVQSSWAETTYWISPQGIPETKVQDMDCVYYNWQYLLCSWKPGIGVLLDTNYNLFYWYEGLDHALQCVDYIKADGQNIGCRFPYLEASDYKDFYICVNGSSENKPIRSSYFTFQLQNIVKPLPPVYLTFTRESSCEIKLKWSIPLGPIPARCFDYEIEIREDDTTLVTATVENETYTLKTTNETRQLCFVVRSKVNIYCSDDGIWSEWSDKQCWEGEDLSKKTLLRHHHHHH

T4: IL13RA2 Protein, mouse Recombinant- His tag (mouse, UniProt O88786 22-334, limits assumed)
T4 construct: also called mouse recombinant His tagged protein; not shown: His tag
T4 sequence (looked up): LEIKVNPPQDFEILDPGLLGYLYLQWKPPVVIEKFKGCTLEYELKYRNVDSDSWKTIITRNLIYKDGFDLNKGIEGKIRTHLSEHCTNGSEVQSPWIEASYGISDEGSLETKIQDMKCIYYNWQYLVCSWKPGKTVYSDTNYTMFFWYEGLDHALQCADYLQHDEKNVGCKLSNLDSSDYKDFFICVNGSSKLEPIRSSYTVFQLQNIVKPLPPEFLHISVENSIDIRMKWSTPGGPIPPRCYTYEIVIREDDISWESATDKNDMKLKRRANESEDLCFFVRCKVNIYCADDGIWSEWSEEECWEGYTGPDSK

T5: Human CD70 mFc (human, UniProt P32970 39-193)
T5 construct: not shown: mFc
T5 sequence (looked up): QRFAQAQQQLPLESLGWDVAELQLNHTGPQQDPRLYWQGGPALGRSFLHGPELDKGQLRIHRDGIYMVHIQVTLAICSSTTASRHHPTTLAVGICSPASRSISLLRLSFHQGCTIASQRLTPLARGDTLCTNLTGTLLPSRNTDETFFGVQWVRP

B1: Anti-CD70 VHH clone 3CEK186 (VHH)
VHH: QVQLQESGGGLVQTGGSLRLACTASGFTFDDYAIAWFRQAPGKEREFVAAISWSGGTTHYADSVKGRFTISRDNAKNTLYLQMSSLKPEDTAVYFCAKSLRSSPSSRWFGSRGQGTQVTVSS
notes: Soluble His-tagged VHH monomer captured on HIS1K biosensors; also called C1; C1 (WT)
B2: VH52f3 (VHH)
VHH: QVQLQESGGGLVQPGGSLRLSCEVSGSIFSINRMAWYRQVPEKEREMVAQITYGDTIKYYGSAKGRFTISRDSAKNAVYLQMNSLKPEDTAVYRCNIVGVLTTGHYEDSFWGQGTQVTVPS
modifications: biotinylated (site not stated)
notes: Expressed in E. coli and 6xHIS purified; also called VH52f3 Biotin; Anti-IL13Rα2 VH52
B3: VH53f3 (VHH)
VHH: B2 VHH with F29S, E42G, R71K, D108N, P120S
modifications: biotinylated (site not stated)
notes: Expressed in E. coli and 6xHIS purified; also called VH53f3 Biotin; Anti-IL13Rα2 VH53
B4: Anti-CD70 VHH, 3HCS92 (VHH)
VHH: QVQLQESGGGLVQAGGSLRLSCAAPRSIFSINAMGWYRQAPGKQRELVAAITSGGSPTYADSVKGRFTISRDNAKNTVYLQMNSLKAEDTAVYYCATGPYGLDNALDAWGQGTQVTVSS
notes: Soluble His-tagged VHH monomer captured on HIS1K biosensors; also called H1; H1 (WT)
B5: VH36f1 (VHH)
VHH: QVQLQESGGGSVQPGGSLRLSCAASGINISSDVMEWFRQGPGEQRELVAHITTNSRTEYADFVKGRFTISRANAKNTLYLQMNGLKPEDTALYYCALRRGGRILWGQGTQVTVSS
modifications: biotinylated (site not stated)
notes: Expressed in E. coli and 6xHIS purified; also called VH36f1 Biotin; Anti-IL13Rα2 VH36
B6: VH43f2 (VHH)
VHH: QVQLQESGGGLVQPGGSLRLSCTASGSIRGIGYMAWGRQGPGKPRELIATINSAGDTNYAESVKGRFTVSRDNAENTLYLQMNNLKSEDTAVYYCNARPGLQSYWGQGTQVTVSS
modifications: biotinylated (site not stated)
notes: Expressed in E. coli and 6xHIS purified; also called VH43f2-Biotin; Anti-IL13Rα2 VH43
B7: VH57f5 (VHH)
VHH: QVQLQESGGGLVQPGGSLRLSCAASGSIFNTNGMGWYRQAPGKQRERVAGISSGGNTVYAASVEGRFTISRDNAKNTGYLQMNNLKPEDTAVYYCRVAGRQDDYWGQGTQVTVSS
modifications: biotinylated (site not stated)
notes: Expressed in E. coli and 6xHIS purified; also called VH57f5 Biotin; Anti-IL13Rα2 VH57
B8: IL13Ra2_2TIG4_f3 (VHH)
VHH: QVQLQESGGGLVQPGGSLRLSCAASGRTYGMGWFRQAPGKEREFVAVGVWSSGNTYYADFARGRFTISRDNAKNTVYLQMDSLKPEDTAVYYCAAPRYSSYTTYHAAYDYWGPGTQVTVSS
modifications: biotinylated (site not stated)
notes: Expressed in E. coli and 6xHIS purified; also called IL13Ra2_2TIG4_f3-Biotin

How the values were obtained:
[1] = molecular target: T1, Mouse CD70 mFc; experiment: BLI, single point; His-tagged VHH captured on HIS1K biosensor, antigen 1 uM in solution
Method: (§1) Next the polypeptides were characterized for CD70 binding kinetics, e.g. by affinity measurements. An affinity measurement method used in this study is illustrated in FIG. 1A, left bottom graphic image. Briefly, His-tagged VHH constructs were individually captured on HIS1K biosensors. VHH-captured biosensors were dipped in wells containing antigen and binding responses were measured. Biosensors were later dipped in buffer wells to observe the dissociation of bound antigen from the VHHs. Biosensors were regenerated and similar binding kinetic assays were performed for subsequent antigens. Single point KD analysis using BioLayer interferometry with a soluble VHH format was undertaken.

[2] = molecular target: T2, IL13RA2 Protein, Rhesus macaque, His tag; experiment: BLI; biotinylated VHH captured on streptavidin biosensor, antigen 1 uM in solution
Method: (§2) Binding Affinity for the VH domains with IL13Rα2 are calculated as follows: Biotinylated VHHs were individually captured on streptavidin biosensors. VHH-captured biosensors were dipped in wells containing antigen and the binding response was measured. Biosensors were later dipped in buffer wells to observe the dissociation of bound antigen from captured VHH. (Schematic representation of the process depicted in FIG. 26, upper left corner). In this case, the IL13RA2 protein used was human recombinant protein extracellular domain; Rhesus macaque IL13R alpha 2 protein with His tag or mouse recombinant His tagged protein or irrelevant protein His tagged were used as controls.

[3] = molecular target: T3, IL13RA2 Protein, Human, Recombinant …; experiment: as above
Method: as §2

[4] = molecular target: T4, IL13RA2 Protein, mouse Recombinant- His …; experiment: as above
Method: as §2

[5] = molecular target: T5, Human CD70 mFc; experiment: BLI, single point; His-tagged VHH captured on HIS1K biosensor, antigen 1 uM in solution
Method: as §1

[6] = molecular target: T2, IL13RA2 Protein, Rhesus macaque, His tag; experiment: BLI; summary of Tables 9A-9C
Method: as §2

[7] = molecular target: T4, IL13RA2 Protein, mouse Recombinant- His …; experiment: BLI; summary of Tables 9A-9C
Method: as §2

Row | Binder | Binding Response [2] | Kd [2] | koff [2] | kon [2] | t½ [2] | Binding Response [3] | Kd [3] | koff [3] | t½ [3] | Binding Response [4] | further results
1 | B1 | – | – | – | – | – | – | – | – | – | – | Binding Response [1]: 0.01 nm
2 | B2 | 1.13 nm | ≤ 1.49 nM | ≤ 0.0001 s⁻¹ | 67000 M⁻¹ s⁻¹ | ≥ 116 min | 0.87 nm | ≤ 0.806 nM | ≤ 0.0001 s⁻¹ | ≥ 116 min | -0.02 nm | –
3 | B3 | 1.35 nm | ≤ 1.42 nM | ≤ 0.0001 s⁻¹ | 70200 M⁻¹ s⁻¹ | ≥ 116 min | 1.04 nm | 0.89 nM | 0.000118 s⁻¹ | 98 min | -0.01 nm | –
4 | B4 | – | – | – | – | – | – | – | – | – | – | Binding Response [1]: 0.03 nm; Kd [1]: 334 nM; koff [1]: 0.000427 s⁻¹; kon [1]: 1280 M⁻¹ s⁻¹; t½ [1]: 27 min; Binding Response [5]: 0.87 nm; Kd [5]: 5.29 nM; koff [5]: 0.000377 s⁻¹; kon [5]: 71300 M⁻¹ s⁻¹; t½ [5]: 31 min
5 | B5 | 1.02 nm | ≤ 1.44 nM | ≤ 0.0001 s⁻¹ | 69300 M⁻¹ s⁻¹ | ≥ 116 min | 0.67 nm | 1.3 nM | 0.000133 s⁻¹ | 87 min | -0.01 nm | –
6 | B6 | 0.96 nm | 27.1 nM | 0.00164 s⁻¹ | 60500 M⁻¹ s⁻¹ | 7.04 min | 0.92 nm | 4.65 nM | 0.000941 s⁻¹ | 12.3 min | -0.04 nm | –
7 | B7 | 0.93 nm | 112 nM | 0.00485 s⁻¹ | 41700 M⁻¹ s⁻¹ | 2.4 min | 1.36 nm | 1.84 nM | 0.000397 s⁻¹ | 29 min | 1.17 nm | fold decrease in affinity compared to human counterpart [6]: ~2 fold; fold decrease in affinity compared to human counterpart [7]: ~2 fold; Kd [4]: 33.7 nM; koff [4]: 0.00485 s⁻¹; kon [4]: 140000 M⁻¹ s⁻¹; t½ [4]: 2.46 min
8 | B8 | 1.17 nm | 3.62 nM | 0.000388 s⁻¹ | 107000 M⁻¹ s⁻¹ | 30 min | 0.72 nm | 5.02 nM | 0.000697 s⁻¹ | 17 min | -0.02 nm | –
